Results: ChEMBL document CHEMBL2203217, “Prohormone-substrate peptide sequence recognition by peptidylglycine α-amidating monooxygenase and its reflection in increased glycolate inhibitor potency” (Bioorg Med Chem Lett, 2012)

What was measured:
[1] = substrate: CC(=O)N1CCC[C@H]1C(=O)N[C@@H](CC(C)C)C(=O)NCC(=O)NCC(=O)O; assay: (§1) Binding affinity to secreted PAM in human DMS53 cell culture medium after 2 hrs by HPLC analysis; settings: DMS-53
[2] = substrate: CC(=O)N1CCC[C@H]1C(=O)N[C@@H](CC(C)C)C(=O)N[C@@H](Cc1ccccc1)C(=O)NCC(=O)O; assay: as §1; settings: DMS-53
[3] = substrate: CC(=O)NCC(=O)NCC(=O)O; assay: as §1; settings: DMS-53
[4] = substrate: CC(=O)NCC(=O)O; assay: as §1; settings: DMS-53
[5] = substrate: CC(=O)N[C@@H](CC(C)C)C(=O)NCC(=O)NCC(=O)O; assay: as §1; settings: DMS-53
[6] = substrate: CC(=O)N[C@@H](CC(C)C)C(=O)N[C@@H](Cc1ccccc1)C(=O)NCC(=O)O; assay: as §1; settings: DMS-53
[7] = substrate: CC(=O)N[C@@H](Cc1ccccc1)C(=O)NCC(=O)O; assay: as §1; settings: DMS-53
[8] = substrate: CC(C)[C@H](N)C(=O)NCC(=O)N[C@@H](C)C(=O)N1CCC[C@H]1C(=O)NCC(=O)O; assay: as §1; settings: DMS-53
[9] = substrate: CC(C)[C@H](N)C(=O)NCC(=O)N[C@@H](C)C(=O)N[C@@H](Cc1ccccc1)C(=O)NCC(=O)O; assay: as §1; settings: DMS-53
[10] = substrate: CC[C@H](C)[C@@H]1NC(=O)[C@H](Cc2ccc(O)cc2)NC(=O)[C@@H](N)CSSC[C@@H](C(=O)N2CCC[C@H]2C(=O)N[C@@H](CC(C)C)C(=O)NCC(=O)NCC(=O)O)NC(=O)[C@H](CC(N)=O)NC(=O)[C@H](CCC(N)=O)NC1=O; assay: as §1; settings: DMS-53
[11] = substrate: CC[C@H](C)[C@@H]1NC(=O)[C@H](Cc2ccc(O)cc2)NC(=O)[C@@H](N)CSSC[C@@H](C(=O)N2CCC[C@H]2C(=O)N[C@@H](CC(C)C)C(=O)N[C@@H](Cc2ccccc2)C(=O)NCC(=O)O)NC(=O)[C@H](CC(N)=O)NC(=O)[C@H](CCC(N)=O)NC1=O; assay: as §1; settings: DMS-53
[12] = substrate: CC[C@H](C)[C@H](NC(=O)[C@H](C)NC(=O)[C@@H](NC(=O)[C@H](CCC(N)=O)NC(=O)[C@@H]1CCCN1C(=O)[C@H](Cc1ccccc1)NC(=O)[C@@H](NC(=O)[C@H](Cc1cnc[nH]1)NC(=O)[C@H](Cc1ccccc1)NC(=O)[C@H](CCCCN)NC(=O)[C@H](CC(N)=O)NC(=O)[C@H](Cc1ccccc1)NC(=O)[C@H](CC(=O)O)NC(=O)[C@H](CCC(N)=O)NC(=O)[C@@H](NC(=O)[C@H](Cc1ccc(O)cc1)NC(=O)[C@@H](NC(=O)CNC(=O)[C@H](CC(C)C)NC(=O)[C@H](CCSC)NC(=O)[C@@H]1CSSC[C@H](N)C(=O)NCC(=O)N[C@@H](CC(N)=O)C(=O)N[C@@H](CC(C)C)C(=O)N[C@@H](CO)C(=O)N[C@@H]([C@@H](C)O)C(=O)N1)[C@@H](C)O)[C@@H](C)O)[C@@H](C)O)[C@@H](C)O)C(=O)NCC(=O)N[C@H](C(=O)NCC(=O)N[C@@H](C)C(=O)N1CCC[C@H]1C(=O)NCC(=O)O)C(C)C; assay: as §1; settings: DMS-53
[13] = substrate: CC[C@H](C)[C@H](NC(=O)[C@H](C)NC(=O)[C@@H](NC(=O)[C@H](CCC(N)=O)NC(=O)[C@@H]1CCCN1C(=O)[C@H](Cc1ccccc1)NC(=O)[C@@H](NC(=O)[C@H](Cc1cnc[nH]1)NC(=O)[C@H](Cc1ccccc1)NC(=O)[C@H](CCCCN)NC(=O)[C@H](CC(N)=O)NC(=O)[C@H](Cc1ccccc1)NC(=O)[C@H](CC(=O)O)NC(=O)[C@H](CCC(N)=O)NC(=O)[C@@H](NC(=O)[C@H](Cc1ccc(O)cc1)NC(=O)[C@@H](NC(=O)CNC(=O)[C@H](CC(C)C)NC(=O)[C@H](CCSC)NC(=O)[C@@H]1CSSC[C@H](N)C(=O)NCC(=O)N[C@@H](CC(N)=O)C(=O)N[C@@H](CC(C)C)C(=O)N[C@@H](CO)C(=O)N[C@@H]([C@@H](C)O)C(=O)N1)[C@@H](C)O)[C@@H](C)O)[C@@H](C)O)[C@@H](C)O)C(=O)NCC(=O)N[C@H](C(=O)NCC(=O)N[C@@H](C)C(=O)N[C@@H](Cc1ccccc1)C(=O)NCC(=O)O)C(C)C; assay: as §1; settings: DMS-53
[14] = substrate: C[C@H](N)C(=O)N1CCC[C@H]1C(=O)NCC(=O)O; assay: as §1; settings: DMS-53
[15] = substrate: C[C@H](N)C(=O)N[C@@H](Cc1ccccc1)C(=O)NCC(=O)O; assay: as §1; settings: DMS-53
[16] = substrate: C[C@H](NC(=O)CN)C(=O)N1CCC[C@H]1C(=O)NCC(=O)O; assay: as §1; settings: DMS-53
[17] = substrate: C[C@H](NC(=O)CN)C(=O)N[C@@H](Cc1ccccc1)C(=O)NCC(=O)O; assay: as §1; settings: DMS-53
[18] = substrate: N[C@@H](Cc1ccccc1)C(=O)NCC(=O)O; assay: as §1; settings: DMS-53
[19] = substrate: O=C(O)CNC(=O)[C@@H]1CCCN1; assay: as §1; settings: DMS-53
[20] = substrate: CC(=O)N1CCC[C@H]1C(=O)N[C@@H](CC(C)C)C(=O)NCC(=O)NCC(=O)O; assay: (§2) Binding affinity to PAM in human DMS53 cells after 2 hrs by HPLC analysis; type: cell-based
[21] = substrate: CC(=O)N1CCC[C@H]1C(=O)N[C@@H](CC(C)C)C(=O)N[C@@H](Cc1ccccc1)C(=O)NCC(=O)O; assay: as §2; type: cell-based
[22] = substrate: CC(=O)NCC(=O)NCC(=O)O; assay: as §2; type: cell-based
[23] = substrate: CC(=O)NCC(=O)O; assay: as §2; type: cell-based
[24] = substrate: CC(=O)N[C@@H](CC(C)C)C(=O)NCC(=O)NCC(=O)O; assay: as §2; type: cell-based
[25] = substrate: CC(=O)N[C@@H](CC(C)C)C(=O)N[C@@H](Cc1ccccc1)C(=O)NCC(=O)O; assay: as §2; type: cell-based
[26] = substrate: CC(=O)N[C@@H](Cc1ccccc1)C(=O)NCC(=O)O; assay: as §2; type: cell-based
[27] = substrate: CC(C)[C@H](N)C(=O)NCC(=O)N[C@@H](C)C(=O)N1CCC[C@H]1C(=O)NCC(=O)O; assay: as §2; type: cell-based
[28] = substrate: CC(C)[C@H](N)C(=O)NCC(=O)N[C@@H](C)C(=O)N[C@@H](Cc1ccccc1)C(=O)NCC(=O)O; assay: as §2; type: cell-based
[29] = substrate: CC[C@H](C)[C@@H]1NC(=O)[C@H](Cc2ccc(O)cc2)NC(=O)[C@@H](N)CSSC[C@@H](C(=O)N2CCC[C@H]2C(=O)N[C@@H](CC(C)C)C(=O)NCC(=O)NCC(=O)O)NC(=O)[C@H](CC(N)=O)NC(=O)[C@H](CCC(N)=O)NC1=O; assay: as §2; type: cell-based
[30] = substrate: CC[C@H](C)[C@@H]1NC(=O)[C@H](Cc2ccc(O)cc2)NC(=O)[C@@H](N)CSSC[C@@H](C(=O)N2CCC[C@H]2C(=O)N[C@@H](CC(C)C)C(=O)N[C@@H](Cc2ccccc2)C(=O)NCC(=O)O)NC(=O)[C@H](CC(N)=O)NC(=O)[C@H](CCC(N)=O)NC1=O; assay: as §2; type: cell-based
[31] = substrate: CC[C@H](C)[C@H](NC(=O)[C@H](C)NC(=O)[C@@H](NC(=O)[C@H](CCC(N)=O)NC(=O)[C@@H]1CCCN1C(=O)[C@H](Cc1ccccc1)NC(=O)[C@@H](NC(=O)[C@H](Cc1cnc[nH]1)NC(=O)[C@H](Cc1ccccc1)NC(=O)[C@H](CCCCN)NC(=O)[C@H](CC(N)=O)NC(=O)[C@H](Cc1ccccc1)NC(=O)[C@H](CC(=O)O)NC(=O)[C@H](CCC(N)=O)NC(=O)[C@@H](NC(=O)[C@H](Cc1ccc(O)cc1)NC(=O)[C@@H](NC(=O)CNC(=O)[C@H](CC(C)C)NC(=O)[C@H](CCSC)NC(=O)[C@@H]1CSSC[C@H](N)C(=O)NCC(=O)N[C@@H](CC(N)=O)C(=O)N[C@@H](CC(C)C)C(=O)N[C@@H](CO)C(=O)N[C@@H]([C@@H](C)O)C(=O)N1)[C@@H](C)O)[C@@H](C)O)[C@@H](C)O)[C@@H](C)O)C(=O)NCC(=O)N[C@H](C(=O)NCC(=O)N[C@@H](C)C(=O)N1CCC[C@H]1C(=O)NCC(=O)O)C(C)C; assay: as §2; type: cell-based
[32] = substrate: CC[C@H](C)[C@H](NC(=O)[C@H](C)NC(=O)[C@@H](NC(=O)[C@H](CCC(N)=O)NC(=O)[C@@H]1CCCN1C(=O)[C@H](Cc1ccccc1)NC(=O)[C@@H](NC(=O)[C@H](Cc1cnc[nH]1)NC(=O)[C@H](Cc1ccccc1)NC(=O)[C@H](CCCCN)NC(=O)[C@H](CC(N)=O)NC(=O)[C@H](Cc1ccccc1)NC(=O)[C@H](CC(=O)O)NC(=O)[C@H](CCC(N)=O)NC(=O)[C@@H](NC(=O)[C@H](Cc1ccc(O)cc1)NC(=O)[C@@H](NC(=O)CNC(=O)[C@H](CC(C)C)NC(=O)[C@H](CCSC)NC(=O)[C@@H]1CSSC[C@H](N)C(=O)NCC(=O)N[C@@H](CC(N)=O)C(=O)N[C@@H](CC(C)C)C(=O)N[C@@H](CO)C(=O)N[C@@H]([C@@H](C)O)C(=O)N1)[C@@H](C)O)[C@@H](C)O)[C@@H](C)O)[C@@H](C)O)C(=O)NCC(=O)N[C@H](C(=O)NCC(=O)N[C@@H](C)C(=O)N[C@@H](Cc1ccccc1)C(=O)NCC(=O)O)C(C)C; assay: as §2; type: cell-based
[33] = substrate: C[C@H](N)C(=O)N1CCC[C@H]1C(=O)NCC(=O)O; assay: as §2; type: cell-based
[34] = substrate: C[C@H](N)C(=O)N[C@@H](Cc1ccccc1)C(=O)NCC(=O)O; assay: as §2; type: cell-based
[35] = substrate: C[C@H](NC(=O)CN)C(=O)N1CCC[C@H]1C(=O)NCC(=O)O; assay: as §2; type: cell-based
[36] = substrate: C[C@H](NC(=O)CN)C(=O)N[C@@H](Cc1ccccc1)C(=O)NCC(=O)O; assay: as §2; type: cell-based
[37] = substrate: N[C@@H](Cc1ccccc1)C(=O)NCC(=O)O; assay: as §2; type: cell-based
[38] = substrate: O=C(O)CNC(=O)[C@@H]1CCCN1; assay: as §2; type: cell-based

B1: Peptidyl-glycine alpha-amidating monooxygenase (Homo sapiens), P19021 (protein)
chain: MAGRVPSLLVLLVFPSSCLAFRSPLSVFKRFKETTRPFSNECLGTTRPVVPIDSSDFALDIRMPGVTPKQSDTYFCMSMRIPVDEEAFVIDFKPRASMDTVHHMLLFGCNMPSSTGSYWFCDEGTCTDKANILYAWARNAPPTRLPKGVGFRVGGETGSKYFVLQVHYGDISAFRDNNKDCSGVSLHLTRLPQPLIAGMYLMMSVDTVIPAGEKVVNSDISCHYKNYPMHVFAYRVHTHHLGKVVSGYRVRNGQWTLIGRQSPQLPQAFYPVGHPVDVSFGDLLAARCVFTGEGRTEATHIGGTSSDEMCNLYIMYYMEAKHAVSFMTCTQNVAPDMFRTIPPEANIPIPVKSDMVMMHEHHKETEYKDKIPLLQQPKREEEEVLDQGDFYSLLSKLLGEREDVVHVHKYNPTEKAESESDLVAEIANVVQKKDLGRSDAREGAEHERGNAILVRDRIHKFHRLVSTLRPPESRVFSLQQPPPGEGTWEPEHTGDFHMEEALDWPGVYLLPGQVSGVALDPKNNLVIFHRGDHVWDGNSFDSKFVYQQIGLGPIEEDTILVIDPNNAAVLQSSGKNLFYLPHGLSIDKDGNYWVTDVALHQVFKLDPNNKEGPVLILGRSMQPGSDQNHFCQPTDVAVDPGTGAIYVSDGYCNSRIVQFSPSGKFITQWGEESSGSSPLPGQFTVPHSLALVPLLGQLCVADRENGRIQCFKTDTKEFVREIKHSSFGRNVFAISYIPGLLFAVNGKPHFGDQEPVQGFVMNFSNGEIIDIFKPVRKHFDMPHDIVASEDGTVYIGDAHTNTVWKFTLTEKLEHRSVKKAGIEVQEIKEAEAVVETKMENKPTSSELQKMQEKQKLIKEPGSGVPVVLITTLLVIPVVVLLAIAIFIRWKKSRAFGDSEHKLETSSGRVLGRFRGKGSGGLNLGNFFASRKGYSRKGFDRLSTEGSDQEKEDDGSESEEEYSAPLPALAPSSS
Km [1]: 550 µM
Km [2]: 7 µM
Km [3]: 1200 µM
Km [4]: 9.9 mM
Km [5]: 860 µM
Km [6]: 11 µM
Km [7]: 16 µM
Km [8]: 960 µM
Km [9]: 18 µM
Km [10]: 190 µM
Km [11]: 27 µM
Km [12]: 200 µM
Km [13]: 14 µM
Km [14]: 4 mM
Km [15]: 200 µM
Km [16]: 3000 µM
Km [17]: 35 µM
Km [18]: 6.5 mM
Km [19]: 880 µM
Km [20]: 660 µM
Km [21]: 6 µM
Km [22]: 1600 µM
Km [23]: 7.5 mM
Km [24]: 860 µM
Km [25]: 8 µM
Km [26]: 6 µM
Km [27]: 1000 µM
Km [28]: 8 µM
Km [29]: 36 µM
Km [30]: 5 µM
Km [31]: 200 µM
Km [32]: 8 µM
Km [33]: 5 mM
Km [34]: 180 µM
Km [35]: 3000 µM
Km [36]: 40 µM
Km [37]: 6 mM
Km [38]: 980 µM
